Test results as given in patent publication US12324826B2, “Compositions and methods to mitigate or prevent an immune response to an immunogenic therapeutic molecule in non-human primates” (Jomoco, Corp, priority 2015, dated 2025).

Key:
[1] = system: ADA against the potentially immunogenic therapeutic agent; test: NHP preclinical pharmacokinetic study: ADA development with immunosuppressant plus immunogenic therapeutic agent; format: in vivo
Method: Administration of a basiliximab loading dose on Day 0 of the NHP preclinical pharmacokinetic study is followed on Day 1 by administration of a basiliximab maintenance dose and the potentially immunogenic therapeutic agent. Basiliximab is dosed approximately every 10 days to maintain a serum concentration at which CD25 is almost completely bound by basiliximab (about 200 ug/mL). The therapeutic agent is dosed at the proscribed interval and dose.
Administration of a nanocarrier encapsulated rapamycin (NER) loading dose on Day −2, −1, or 0 of the NHP preclinical pharmacokinetic study is followed on Day 0 by administration the potentially immunogenic therapeutic agent. NER and the therapeutic agent are then co-administered at the proscribed dose and intervals of every 1-4 weeks for as many as 12 weeks, following which the immunogenic therapeutic agent may be administered without NER.
Basiliximab is dosed approximately every 10 days to maintain a serum concentration at which CD25 is almost completely bound by basiliximab (about 200 ug/mL). Rapamycin is dosed daily or every other day during the course of basiliximab administration to maintain a rapamycin trough level within the range of 4-12 ng/mL. Following this treatment regimen, the immunogenic therapeutic agent may be administered without the immunosuppressant combination.

[2] = system: ADA against the potentially immunogenic therapeutic agent
Method: Administration of a basiliximab loading dose on Day 0 of the NHP toxicology study is followed on Day 1 by administration of a basiliximab maintenance dose and the potentially immunogenic therapeutic agent. Basiliximab is dosed approximately every 10 days to maintain a serum concentration at which CD25 is almost completely bound by basiliximab (about 200 ug/mL). The therapeutic agent is dosed at the proscribed interval and dose.
Administration of a nanocarrier encapsulated rapamycin (NER) loading dose on Day −2, −1, or 0 of the NHP toxicology study is followed on Day 0 by administration the potentially immunogenic therapeutic agent. NER and the therapeutic agent are then co-administered at the proscribed dose and intervals of every 1-4 weeks for as many as 12 weeks, following which the immunogenic therapeutic agent may be administered without NER.
Basiliximab is dosed approximately every 10 days to maintain a serum concentration at which CD25 is almost completely bound by basiliximab (about 200 ug/mL). Rapamycin is dosed daily or every other day during the course of basiliximab administration to maintain a rapamycin trough level within the range of 4-12 ng/mL. Following this treatment regimen, the immunogenic therapeutic agent may be administered without the immunosuppressants.

Substance: basiliximab
- development of ADA in the immunosuppressant treated group ([1]; NHP given immunosuppressant and potentially immunogenic therapeutic agent, compared with control group given therapeutic agent alone): no ADA develops or the level of ADA is sufficiently low
- pharmacokinetic parameters of the therapeutic agent in the immunosuppressant treated group ([1]; NHP given immunosuppressant and therapeutic agent, altered in the control group due to ADA): unaltered
- development of ADA ([2]; NHP toxicology study, immunosuppressant plus therapeutic agent, compared with therapeutic agent alone): prevents the development of ADA
- immune mediated drug induced liver injury (DILI) in the group given immunosuppressant and therapeutic agent ([2]; in vivo): develop immune mediated drug induced liver injury (DILI)
